From patent US20260250378A1 (AGENCY FOR SCIENCE TECHNOLOGY AND RESEARCH, published 2026)
“And” between values parts separate entries of the source, which are not always exact repeats. Equal entries are not always repeated. Values belong to the binder of their own block, whether it stands above or below them.

How the values were obtained:
[1] = target: T1, CRT in cell extracts (HeLa; MDA-231) (human, UniProt P27797 18-417); test: western blot, extracts of MDA-231 and MDA-231 CNX-/- cells
T1 construct: Denatured endogenous protein in western blots; also called calreticulin
T1 sequence (looked up): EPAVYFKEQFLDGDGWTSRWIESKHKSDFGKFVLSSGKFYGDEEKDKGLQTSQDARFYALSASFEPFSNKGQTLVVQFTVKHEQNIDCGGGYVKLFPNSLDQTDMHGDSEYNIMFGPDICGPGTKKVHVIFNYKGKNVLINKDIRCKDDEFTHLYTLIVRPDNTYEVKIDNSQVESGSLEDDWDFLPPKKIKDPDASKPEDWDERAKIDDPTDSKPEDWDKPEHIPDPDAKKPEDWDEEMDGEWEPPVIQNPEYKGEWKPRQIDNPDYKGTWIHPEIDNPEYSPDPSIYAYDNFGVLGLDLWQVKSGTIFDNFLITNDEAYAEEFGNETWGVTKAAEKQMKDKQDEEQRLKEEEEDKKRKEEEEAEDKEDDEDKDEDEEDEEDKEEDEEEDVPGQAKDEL

[2] = target: T2, recombinant human CNX protein with a polyhistidine tag at the C-terminus (HuCANX_His) (human, UniProt P27824 21-481, limits assumed); test: BLI, IgG1 on AHC biosensor, HuCANX_His 200-3.13 nM
T2 construct: also called HuCANX with a His tag
T2 sequence (looked up): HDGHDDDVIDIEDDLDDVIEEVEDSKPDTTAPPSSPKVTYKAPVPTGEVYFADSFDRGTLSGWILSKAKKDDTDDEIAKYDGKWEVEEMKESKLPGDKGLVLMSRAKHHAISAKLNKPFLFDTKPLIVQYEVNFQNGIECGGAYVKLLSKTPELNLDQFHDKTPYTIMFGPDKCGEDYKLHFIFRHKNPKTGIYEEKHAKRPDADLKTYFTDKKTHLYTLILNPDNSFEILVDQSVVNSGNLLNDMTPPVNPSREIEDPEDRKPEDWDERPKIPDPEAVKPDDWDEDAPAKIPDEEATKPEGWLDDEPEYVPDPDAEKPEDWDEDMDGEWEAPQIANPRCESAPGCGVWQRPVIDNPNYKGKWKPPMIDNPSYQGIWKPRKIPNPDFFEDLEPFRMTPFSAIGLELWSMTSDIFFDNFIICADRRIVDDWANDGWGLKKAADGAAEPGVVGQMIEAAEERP
Experimental: The 5 antibody clones were loaded and captured by the anti-human IgG Fc capture (AHC) biosensors. The biosensors were dipped into a range of HuCANX_His protein concentrations (from 200 nM to 3.13 nM, in 2-fold dilutions), the kinetics of the association and dissociation were then recorded.

[3] = target: T3, CNX-his antigen (Genscript) (human, UniProt P27824 21-481, limits assumed); test: ELISA, CNX-his coated, antibody titrated, anti-human-HRP
T3 construct: also called human CNX-His; recombinant CNX-histidine tag
T3 sequence (looked up): T2 sequence (looked up)

[4] = target: T3, CNX-his antigen (Genscript); test: ELISA, CNX-his coated, antibody titrated, HRP secondary, 4-parameter fit
Experimental: (§1) CNX-his antigen (Genscript) was diluted in bicarbonate/carbonate antigen coating buffer (100 mM NaHCO₃) and coated on maxisorp microplates shaking overnight at 4 C. […] The wells were washed 3 times with PBST before the addition of antibodies at several indicated dilution in 2% BSA-PBST and incubated for 1 hour at 37 C. The wells were washed 3 times with PBST. The specific anti-human secondary antibody conjugated with horseradish peroxidase was diluted and added to wells with a subsequent incubation for 1 hour at 37° C. Then wells were washed 3 times with PBST. Addition of TMB solution was performed and incubated at room temperature for 30 mins or until desired color change was attained. Addition of 0.1 M HCL to stop reaction was then added and measurement of absorbance at 450 nm on a microplate reader was then followed. […] CNX ab10286 (abcam) and a human Igg1 unrelated were used as positive and negative control respectively. 4 parameters logistic curve fit were used to calculate EC50.

[5] = target: T4, CNX-mcherry fluorescent protein expressed in Huh7 cells; test: immunofluorescence, Huh7 CNX-mcherry cells minus plain Huh7 cells, anti-human Alexa 647
T4 construct: Target of immunofluorescence staining inside transfected Huh7 cells
T4 sequence (P27824 whole entry): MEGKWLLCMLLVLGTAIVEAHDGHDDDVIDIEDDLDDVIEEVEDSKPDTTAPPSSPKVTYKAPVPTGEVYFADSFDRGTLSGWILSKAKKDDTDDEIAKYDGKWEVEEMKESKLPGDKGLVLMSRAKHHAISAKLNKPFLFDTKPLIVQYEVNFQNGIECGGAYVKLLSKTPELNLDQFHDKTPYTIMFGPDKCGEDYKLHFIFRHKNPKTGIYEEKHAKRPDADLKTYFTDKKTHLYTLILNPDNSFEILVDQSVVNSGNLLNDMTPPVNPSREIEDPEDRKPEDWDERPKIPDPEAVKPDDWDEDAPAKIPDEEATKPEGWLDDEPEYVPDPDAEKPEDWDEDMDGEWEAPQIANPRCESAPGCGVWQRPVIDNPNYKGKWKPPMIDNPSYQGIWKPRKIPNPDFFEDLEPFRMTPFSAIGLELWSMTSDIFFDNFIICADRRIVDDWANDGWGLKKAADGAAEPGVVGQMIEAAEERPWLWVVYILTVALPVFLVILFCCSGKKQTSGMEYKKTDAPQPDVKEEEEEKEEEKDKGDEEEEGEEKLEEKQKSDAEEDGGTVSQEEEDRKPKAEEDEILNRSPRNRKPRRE
Source text: A secondary anti-human antibody conjugated to Alexa fluorophore 647 was used. […] The signal obtained from normal Huh7 without CNX mCherry was used to normalize the signal obtained with Huh7 CNX-mcherry. […] Thus, these specific antibodies could detect CNX overexpression in CNX mCherry cells in immunofluorescence application settings.

BSA = target: T5, BSA (UniProt P02769 25-607); test: ELISA, BSA-coated control wells
T5 construct: Control coating in ELISAs; also called bovine serum albumin
T5 sequence (P02769 25-607 limits assumed): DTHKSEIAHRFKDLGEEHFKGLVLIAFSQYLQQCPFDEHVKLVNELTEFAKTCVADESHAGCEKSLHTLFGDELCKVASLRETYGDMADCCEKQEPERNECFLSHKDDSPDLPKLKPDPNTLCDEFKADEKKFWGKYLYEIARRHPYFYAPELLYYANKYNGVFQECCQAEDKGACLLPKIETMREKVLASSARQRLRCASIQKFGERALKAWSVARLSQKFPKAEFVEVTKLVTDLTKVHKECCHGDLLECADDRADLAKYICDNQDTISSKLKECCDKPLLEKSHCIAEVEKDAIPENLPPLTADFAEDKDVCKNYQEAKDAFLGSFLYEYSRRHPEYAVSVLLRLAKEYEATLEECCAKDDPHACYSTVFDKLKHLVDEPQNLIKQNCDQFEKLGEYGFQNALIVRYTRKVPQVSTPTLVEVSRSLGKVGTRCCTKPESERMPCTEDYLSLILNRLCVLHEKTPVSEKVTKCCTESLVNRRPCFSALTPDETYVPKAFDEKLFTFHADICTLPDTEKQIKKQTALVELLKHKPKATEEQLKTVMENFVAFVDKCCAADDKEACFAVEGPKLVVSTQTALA

[6] = target: T3, CNX-his antigen (Genscript); test: ELISA, His-tagged human CNX coated, serial dilutions of antibody
[7] = target: T3, CNX-his antigen (Genscript); test: ELISA with serial dilutions of the antibody on coated His-tagged human CNX
[8] = target: T1, CRT in cell extracts (HeLa; MDA-231); test: immunoblot of HeLa extracts (WT, CNX KD, CRT KD), anti-human HRP
Experimental: All Fabs converted to IgG1 were tested for western blotting detection using Hela extract from cells untreated or subjected to 72H knock down with an siRNA against CNX or CRT (CRT). After SDS-PAGE and transfer to nitrocellulose membranes, membranes were blocked with BSA and incubated with 1 μg/ml antibody solution overnight, following multiple washes, an anti-human HRP secondary antibody was used for detection of tested antibodies.

[9] = target: T6, Recombinant human CANX protein fused with the Fc region of human IgG1 at the C-terminus (HuCANX_hFc) (human, UniProt P27824 21-481, limits assumed, biotinylated in the ELISAs); test: ELISA, IgG1 coated 2 ug/ml, biotinylated antigen titrated (EC50 is of the antigen), streptavidin-HRP
T6 construct: also called biotinylated HuCANX with a human Fc tag; not shown: Fc region of human IgG1 at the C-terminus
T6 sequence (looked up): T2 sequence (looked up)
Experimental: The 15 antibody clones were tested using ELISA against biotinylated recombinant HuCANX_hFc protein to assess binding avidity for the target, with an irrelevant IgG1 used as a negative control antibody. In brief, the 15 antibody clones were coated at 2 μg/ml onto the 96-well ELISA plates overnight at 4° C. After blocking with casein for 2 hours, the biotinylated antigen was added at different concentrations (3 times serial dilutions) and incubated for 1 hour. The wells were then washed with PBST and detected by HRP conjugated streptavidin. […] antibody clones were also tested in ELISA against recombinant HuCANX_His protein to assess binding affinity for the target, with an irrelevant IgG1 used as a negative control antibody. In brief, the 15 antibody clones were coated at 10 nM onto the 96-well ELISA plates overnight at 4° C. After blocking with casein for 2 hours, the antigen was added at different concentrations (3 times serial dilutions) and incubated for 1 hour. The wells were then washed with PBST and detected by HRP conjugated anti-His tag antibody.

MsCANX_His = target: T7, MsCANX_His (mouse, UniProt P35564); test: BLI, IgG1 on AHC biosensor, MsCANX_His 200-0.39 nM
T7 construct: recombinant, C-terminal polyhistidine tag; also called recombinant mouse CANX protein with a polyhistidine tag at the C-terminus
T7 sequence (antigen, looked up): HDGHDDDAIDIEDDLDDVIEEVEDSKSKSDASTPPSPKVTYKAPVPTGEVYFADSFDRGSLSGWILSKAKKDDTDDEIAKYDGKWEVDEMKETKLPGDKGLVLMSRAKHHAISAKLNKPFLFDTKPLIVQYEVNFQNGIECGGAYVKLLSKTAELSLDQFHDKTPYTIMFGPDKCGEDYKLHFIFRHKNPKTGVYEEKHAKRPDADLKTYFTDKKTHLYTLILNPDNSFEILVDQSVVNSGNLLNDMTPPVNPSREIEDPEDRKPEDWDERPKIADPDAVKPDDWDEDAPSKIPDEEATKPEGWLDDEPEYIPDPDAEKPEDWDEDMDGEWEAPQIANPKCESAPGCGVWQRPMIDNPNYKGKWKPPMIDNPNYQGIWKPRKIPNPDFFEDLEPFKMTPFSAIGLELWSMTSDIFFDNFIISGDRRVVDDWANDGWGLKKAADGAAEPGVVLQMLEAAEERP
Experimental: The binding affinity of the 15 antibody clones to recombinant mouse CANX protein with a polyhistidine tag at the C-terminus (MsCANX_His) was measured by Bio-Layer Interferometry. The 15 antibody clones were loaded and captured by the anti-human IgG Fc capture (AHC) biosensors (FIG. 6). The biosensors were dipped into a range of MsCANX_His protein concentrations (from 200 nM to 0.39 nM, in 2-fold dilutions), the kinetics of the association and dissociation were then recorded.

[10] = target: T3, CNX-his antigen (Genscript); test: ELISA, CNX-his coated, antibody titrated, HRP secondary, 4-parameter fit; printed in grey: Curve did not plateau in ELISA
Experimental: as §1

- binding result [1]: binds
- Kd [2]: 5.56 nM
- koff [2]: 0.000225 s⁻¹
- kon [2]: 40400 M⁻¹ s⁻¹
- EC50 [3]: > 0.1 nM
- EC50 [4]: 0.0643 µg/mL and 0.43 nM
- Intensity (CNX+ cells - CNX -ve) [5]: 3140
B1: C008 IgG1 (antibody, V domains shown)
VH: QVQLVQSGGGVVQPGRSLRLSCAASGFTVSSNYMSWVRQAPGKGLEWVSVIYSGGSTYYADSVKGRFTISRDNSKNTLYLQMNSLRAEDTAVYYCARGSRAVAGAFDYWGQGTLVTVSS
VL: YSELTQDPAVSVALGQTVRITCQGDSLRTYYANWYQQKPGQAPVLVMYAKNHRPSGIPDRFSGSSSGNTASLTITGAQAEDEADYYCGSRDSSGNHPVFGGGTKVTVLG
notes: scFv clone 8 converted to human IgG1 (pFUSEss-CHIg-hG1 and pFUSE2ss-CLIg-hl2); also called IgG1 clone 8; Igg clone 8

- EC50 [6]: ~0.0031 ng/mL
- EC50 (read off the curve) [7]: ~3 ng/mL
B2: monoclonal anti-CNX antibody clone 2G9 (antibody, V domains shown)
VH: QVTLKESGGGVVQPGRSLRLSCAASGFTFSSYGMHWVRQAPGKGLEWVAVISYDGSNKYYADSVKGRFTISRDNSKNTLYLQMNSLRAEDTAVYYCTQGRDYWGQGTLVTVSS
VL: QAVLTQPSSLSASPGASASLTCTLRSGINVGTYRIYWYQQKPGSPPQYLLRYKSDSDKQQGSGVPSRFSGSKDASANAGILLISGLQSEDEADYYCMIWHSSAWVFGGGTKLTVL
notes: also called 2GP
- binding result (BSA): no binding (tested: 10 ug/ml (concentration from the text))

- binding result [8]: no binding (tested: 1 ug/ml)
- EC50 [9]: 2.14 nM
- Kd (MsCANX_His): 5.8 nM
- koff (MsCANX_His): 0.00111 s⁻¹
- kon (MsCANX_His): 192000 M⁻¹ s⁻¹
- Intensity (CNX+ cells - CNX -ve) [5]: 945
- EC50 [10]: 8490 ng/mL
B3: 5E8 IgG1 (antibody)
heavy: not shown
light: DIQLTQSPSSLSASVGDRVTITCRASQSISTYINWYQQKPGKAPKLLIYFASSLQSGVPSRFSGGGSGTDFTLTISSLQPEDFATYYCQQSYNIPVTFGQGTKVEVTRTVAAPSIFIFPPSDEQLKSGTASVVCLLNNFYPREAKVQWKVDNALQSGNSQESVTEQDSKDSTYSLSSTLTLSKADYEKHKVYACEVTHQGLSSPVTKSFNRGEC
